# Data published in US20200270352A1 (PIERRE FABRE MEDICAMENT, published 2020).
# Positions count from the first letter of the chain named.
# B1: murine antibody 212A11 (hybridoma CNCM I-4773) (antibody, V domains shown)
# VH: QVQLQQSGPELVKPGASVKMSCKASGYTFTSYYIHWVKQRPGQGLEWIGWIWPGDGSTKYNEKFKGKTTLTADKSSSTAYMFLSSLTSEDSAVYFCASPMITPNYAMDYWGQGASVTVSS
# VL: DIQMTQTTSSLSASLGDRVTISCRASQDINKYLNWYQQQPDGTVKLLIYYTSRLHSGVPSRFSGRGSGTDYSLTISNLEQEDIATYFCQQGSTLPYTFGGGTKLEIK
# notes: also called m212A11
# B2: murine antibody 219D6 (hybridoma CNCM I-4736) (antibody, V domains shown)
# VH: B1 VH with A16D, T28S, Y33F, A72T, S84N
# VL: B1 VL with N30S
# notes: also called m219D6
# B3: murine antibody 213B10 (hybridoma CNCM I-4774) (antibody, V domains shown)
# VH: B1 VH with P9S, K63R
# VL: B1 VL with N30S, V44I, S76T, T93A
# notes: also called m213B10
# B4: murine antibody 208F2 (hybridoma CNCM I-4757) (antibody, V domains shown)
# VH: B1 VH with H35Y, I48L, G66D, S77N
# VL: B1 VL with N30S, V44I, L78V
# notes: also called m208F2
# B5: murine antibody 214F8 (hybridoma CNCM I-4775) (antibody, V domains shown)
# VH: B1 VH with P9S, M20L, K63R
# VL: B1 VL with I21F, N30S, V44I, S76T, T93A
# notes: also called m214F8
# B6: chimeric antibody c212A11 (antibody, human IgG1, kappa, V domains shown)
# VH: B1 VH
# VL: DIQMTQTTSSLSASLGDRVTISCRASQDINKYLNWYQQQPDGTVKLLIYYTSRLHSGVPSRFSGRGSGTDYSLTISNLEQEDIATYFCQQGSTLPYTFGGGTKLEIKR
# B7: chimeric antibody c219D6 (antibody, human IgG1, kappa, V domains shown)
# VH: B1 VH with A16D, T28S, Y33F, A72T, S84N
# VL: B6 VL with N30S
# B8: chimeric antibody c213B10 (antibody, human IgG1, kappa)
# heavy: not shown
# light: DIQMTQTTSSLSASLGDRVTISCRASQDISKYLNWYQQQPDGTIKLLIYYTSRLHSGVPSRFSGRGSGTDYSLTITNLEQEDIATYFCQQGSALPYTFGGGTKLEIKRTVAAPSVFIFPPSDEQLKSGTASVVCLLNNFYPREAKVQWKVDNALQSGNSQESVTEQDSKDSTYSLSSTLTLSKADYEKHKVYACEVTHQGLSSPVTKSFNRGEC
# B9: chimeric antibody c214F8 (antibody, human IgG1, kappa)
# heavy: not shown
# light: B8 light with I21F
# B10: chimeric antibody c208F2 (antibody, human IgG1, kappa, V domains shown)
# VH: B1 VH with H35Y, I48L, G66D, S77N
# VL: B6 VL with N30S, V44I, L78V
# B11: humanized antibody hz208F2 VH3/VL3 (hz208F2 H026/L024) (antibody, human IgG1, kappa, V domains shown)
# VH: QVQLVQSGAEVKKPGASVKMSCKASGYTFTSYYIYWVKQAPGQGLEWLGWIWPGDGSTKYNEKFQGRVTLTADKSSNTAYMFLSSLRSEDTAVYFCASPMITPNYAMDYWGQGTLVTVSS
# VL: DIQMTQSPSSLSASVGDRVTISCRASQDISKYLNWYQQKPGKAPKLLIYYTSRLHSGVPSRFSGRGSGTDYSLTISNLQPEDFATYFCQQGSTLPYTFGGGTKVEIKR
# notes: also called H26/L024; first humanized form of 208F2
# Target: T1, rmIGF-1R protein (murine IGF-1R extracellular domain, R&D Systems cat 6630-GR/Fc) (murine, UniProt Q60751 31-936)
# T1 construct: extracellular domain; Bought reagent; not shown: Fc part implied by the catalogue number /Fc; not described
# T1 sequence (Q60751 31-936): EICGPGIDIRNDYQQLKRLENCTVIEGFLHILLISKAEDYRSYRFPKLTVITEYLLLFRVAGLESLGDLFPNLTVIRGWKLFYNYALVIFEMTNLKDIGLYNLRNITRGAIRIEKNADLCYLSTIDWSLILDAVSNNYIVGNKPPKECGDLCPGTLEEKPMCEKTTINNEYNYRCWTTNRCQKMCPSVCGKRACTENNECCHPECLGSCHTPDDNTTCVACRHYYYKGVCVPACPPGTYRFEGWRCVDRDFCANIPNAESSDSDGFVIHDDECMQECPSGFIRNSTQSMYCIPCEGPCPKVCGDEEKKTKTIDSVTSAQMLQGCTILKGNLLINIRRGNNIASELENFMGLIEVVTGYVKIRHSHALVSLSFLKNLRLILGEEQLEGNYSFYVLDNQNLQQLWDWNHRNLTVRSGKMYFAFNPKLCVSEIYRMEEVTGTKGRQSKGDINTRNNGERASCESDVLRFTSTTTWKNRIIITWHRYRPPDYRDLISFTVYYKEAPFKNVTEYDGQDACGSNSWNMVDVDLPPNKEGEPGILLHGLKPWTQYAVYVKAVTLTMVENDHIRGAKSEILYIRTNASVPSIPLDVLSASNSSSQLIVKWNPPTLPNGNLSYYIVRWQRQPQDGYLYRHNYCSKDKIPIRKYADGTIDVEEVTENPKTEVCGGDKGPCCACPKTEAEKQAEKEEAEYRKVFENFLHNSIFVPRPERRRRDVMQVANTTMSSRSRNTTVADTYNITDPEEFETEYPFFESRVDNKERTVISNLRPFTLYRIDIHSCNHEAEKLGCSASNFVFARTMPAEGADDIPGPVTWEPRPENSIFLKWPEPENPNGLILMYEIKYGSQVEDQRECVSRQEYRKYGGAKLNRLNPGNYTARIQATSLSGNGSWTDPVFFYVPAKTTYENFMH
# Assay: ELISA on coated rmIGF-1R, SNT at 5 µg/ml
# Method: In addition three ELISAs were performed (either before or after cloning) to study the binding of antibodies on the recombinant human (hIGF-1R) and murine (mIGF-1R) proteins, and on the recombinant human Insulin Receptor (hIR) protein. […] The plates were then blocked with PBS containing 0.5% gelatin (#22151, Serva Electrophoresis GmbH, Heidelberg, Germany) for 2 h at 37° C. Once the saturation buffer discarded by flicking plates, 100 μl of each supernatant dilution were added to each well (either undiluted hybridoma supernatant either supernatant serial dilutions) and incubated for 1 h at 37° C. […] Then, ELISA plates were washed 3-times and the TMB (#UP664782, Uptima, Interchim, France) substrate is added. After a 10 min incubation time at room temperature, the reaction was stopped using 1 M sulfuric acid and the optical density at 450 nm is measured.
row,D.O 450 nm,Binder
1,0.102 OD 450 nm,B1
2,0.112 OD 450 nm,B2
3,0.127 OD 450 nm,B3
4,0.099 OD 450 nm,B4
5,0.102 OD 450 nm,B5

# Target: T2, human IGF-1R, native, on cells (MCF-7, hIGF-1R transfected cells, primary normal human cells) (human, UniProt P08069 31-1367)
# Assay: cell-based or functional assay
inhibition of hIGF-1R phosphorylation in response to IGF-1 (MCF-7 cells),"% of pIGF-1R compared to IGF-1 (MCF-7 cells, 10 µg/ml Ab)",Binder
> 80%,,B1
,< 10%,B6
> 80%,,B2
,< 10%,B7
> 80%,,B3
> 80%,,B4
> 80%,,B5
,< 10%,B8
,< 10%,B9
,< 10%,B10

# Target: T2, human IGF-1R, native, on cells (MCF-7, …)
# Assay: cell-based or functional assay
# Remark: another data set of the same source
MCF7 internalisation assay: % remaining rh IGF1R,MCF7 internalisation assay: Δ (MFI 4°C - MFI 37°C),MCF7 internalisation assay: MFI 37°C,Binder
30%,243 MFI,,B2
30%,271 MFI,,B3
27%,261 MFI,94 MFI,B4
29%,275 MFI,111 MFI,B5

# Target: T3, human insulin receptor on cells (IM9 cells; hIR+ transfected cell line, NIH 3T3 IR+) (human, UniProt P06213 28-1382)
# T3 construct: whole, on cells; also called human IR
# Assay: FACS titration on NIH 3T3 IR+ cells
row,Binder,binding result
1,B11,no binding (tested: log[M] about -7.2 (about 6e-8 M))

# Target: T4, monkey IGF-1R on COS-7 cells (African green monkey kidney) (monkey (African green monkey))
# T4 construct: whole, on cells; also called monkey native IGF-1R
# Assay: FACS on Cos-7 cells (monkey IGF1R+), SNT at 5 µg/ml
row,MFI,Binder
1,126 MFI,B1

# Target: T2, human IGF-1R, native, on cells (MCF-7, …)
# Assay: cell-based or functional assay
# Remark: another data set of the same source
% internalization (MCF-7),"ΔMFI (MFI 4°C - MFI 37°C, MCF-7, 10 µg/ml, 4 h)",Binder
88%,294 MFI,B4
82%,278 MFI,B10
87%,344 MFI,B11

# Target: T2, human IGF-1R, native, on cells (MCF-7, …)
# Assay: cell-based or functional assay
# Remark: another data set of the same source
"ΔMFI (MFI 4°C - MFI 37°C, MCF-7)",ΔMFI_EC50 (MCF-7),Binder
322 MFI,2.7e-10,B6
353 MFI,4.4e-10,B7
369 MFI,2.3e-10,B8
403 MFI,2.2e-10,B9
288 MFI,1.8e-10,B10
